Measured values reported in a protein production outcome set (Wang et al. 2014).

assay: label from the status in PepcDB records

| Sequence | protein production |
| --- | --- |
| MKVLIDTNVILDVLLNRASFVQDAIAVLELTCGNIQAYVSASAITDIYYIAYKELRDKIRVKNLIKTLLQIITVAGISDKEIMSAIDSDWADFEDSLQNAVAESHDCSMIITRNISDFNGSNLQIISPKDFIVQFTHLEHHHHHH | failed |
| MKVLLVLTDAYSDCEKAITYAVNFSEKLGAELDILAVLEDVYNLERANVTFGLPFPPEIKEESKKRIERRLREVWEKLTGSTEIPGVEYRIGPLSEEVKKFVEGKGYELVVWACYPSAYLCKVIDGLNLASLIVK | not failed |
| MKVMIEKILLVQTLKRLPRMGWLIKGVQEPESIADHSFGVAFITLVLADVLEKRGKRIDVEKALKMAIVHDLAEAIITDIPLSAQEFVDKDKAEALVFKKVFPEFYELYREYQECSSPEAQLVRIADKLDMILQAYQYELSGNKNLDEFWEAIEEIKRLELSKYLEDILNSVGRLKA | not failed |
| MKVSLGNGEMGVSAHLQPCKAGTTRFFTSNTHSSVVLQGFDQLRIEGLLCDVTLVPGDGDEIFPVHRAMMASASDYFKAMFTGGMKEQDLMCIKLHGVNKVGLKKIIDFIYTAKLSLNMDNLQDTLEAASFLQILPVLDFCKVFLISGVSLDNCVEVGRIANTYNLIEVDKYVNNFILKNFPALLSTGEFLKLPFERLAFVLSSNSLKHCTELELFKAACRWLRLEDPRMDYAAKLMKNIRFPLMTPQDLINYVQTVDFMRTDNTCVNLLLEASNYQMMPYMQPVMQSDRTAIRSDSTHLVTLGGVLRQQLVVSKELRMYDERAQEWRSLAPMDAPRYQHGIAVIGNFLYVVGGQSNYDTKGKTAVDTVFRFDPRYNKWMQVASLNEKRTFFHLSALKGHLYAVGGRSAAGELATVECYNPRMNEWSYVAKMSEPHYGHAGTVYGGLMYISGGITHDTFQNELMCFDPDTDKWMQKAPMTTVRGLHCMCTVGDKLYVIGGNHFRGTSDYDDVLSCEYYSPTLDQWTPIAAMLRGQSDVGVAVFENKIYVVGGYSWNNRCMVEIVQKYDPEKDEWHKVFDLPESLGGIRACTLTVFPPEENPGSPSRESPLSAPSDHS | failed |
| MKVTQLSSETLDRAHERFEETLAQMTVAEANTMPAPLIKSVTWLMWHTARELDLQISALNHSDPLWLSQHWTEKFALDLPDETEDWHHTPEEAAKVVVAEKQLLSDYLAASVALTKSYLDQIKEEQLSDVIDKNWTPPVTRQVRLVSAIDDAVMHSGQAVYTRRLVIGK | not failed |
| MKVTVTTLELKDKITIASKALAKKSVKPILAGFLFEVKDGNFYICATDLETGVKATVNAAEISGEARFVVPGDVIQKMVKVLPDEITELSLEGDALVISSGSTVFRITTMPADEFPEITPAESGITFEVDTSLLEEMVEKVIFAAAKDEFMRNLNGVFWELHKNLLRLVASDGFRLALAEEQIENEEEASFLLSLKSMKEVQNVLDNTTEPTITVRYDGRRVSLSTNDVETVMRVVDAEFPDYKRVIPETFKTKVVVSRKELRESLKRVMVIASKGSESVKFEIEENVMRLVSKSPDYGEVVDEVEVQKEGEDLVIAFNPKFIEDVLKHIETEEIEMNFVDSTSPCQINPLDISGYLYIVMPIRLA | not failed |
| MKVVLVGATGFVGRHLLAALHAAGHQLIATSRRPQPQGLPGVEWRQLDLDCLGREPQPFALPADTDLLINAAGLLSTDARALSLTQDLGTRALFDLAAARGVRVLQISALGAGILPQVPFLASKAAADDYLLQLGVPAVVLRPSLVLGAGGASSGWLTRLSPWPLIPLLSAKAQMQPLHIEDLSAAVLALLRQWPQESMVLPLVGPERMTMAQLLDRLRSAQGWAPARYFKLPAVLLRLVAAAGDRLGWRALNRQSLAMARHDNLADPQVLASVCGYHAAPLAARLQDWPQAAQSTQLALRPLLLAVMVLIWLGTALVCIGPGYAWGLRIMAEAGVQGIWAALAVIGGSLCDALLGVGLLLRRWRRRALQAQLGLMLGYTLIISLILPHFWFDPYAAVAKNLVLMVATLWLLWTEPHQ | failed |
| MKVWPVKHSPLLRQPERFIARSELQALIRNVTQNLVNIKDESGQFLLRLDDGRVIDTKGWAGWEWTHGVGLYGIYQYYQQTGDIEMRDIIDRWFADRFAEGATTKNVNTMAPFLTLAYRFEETGRMAYLPWLESWAEWAMHEMPRTEQGGMQHMTLAEENHQQMWDDTLMMTVLPLAKIGKLLNRPQYVEEATYQFLLHVQNLMDRETGLWFHGWNYEGRHNFARARWARGNSWLTMVIPDFLELVDLPEGNAVRRYLITVLDAQIAALAECQDDSGLWHTLLDDPHSYLEASATAGFAYGILKAVRKRYVGQHYAGVAEKAIRGIVQNISPQGELLQTSFGTGMGSDLDFYRQIPLTSMPYGQAMAILCLTEYLRKYF | not failed |
| MKVYLESFGCSASQASAEIMKASIGKLGHELLSPENAGQAEVYICNSCTVKYTTEQKILYKIRSMGEKGVQVIVSGCMPEVQLEDILHANPEAHILGVNAVSRLGDLLSTIEQRKKTGIPGGERLEIRTSEPQGFLNVPRERSNPNIHICQISQGCNFACSYCIVKHARGKLLSFPPEEIIEDIRSAVADGCREIWLTSQDDSQYGMDTGVKLPELLRAISEIPGDFKVRVGMMNPFSVLPILDDLVDAFDSDKIFKLLHLPIQSASHSVLKKMNRLHKMDSVDEIITKFRAHFEDLSLFTDIIVGFCDETDEDFEETIEWVKKYRPEKINISRYSPRPHTKAFSFRNLDSRISVKRSHQLHKVCEQIKIESKNEMIGWKGRVFVSKYTEIGDVLTRTDSYRPVVISGSDLRPGEYAEVKITGAKPGYFLGKLVSLEHHHHHH | not failed |
| MKWDKKWNDGIILALETAFISWFTYAFLYQNYLLYKWHRGSPLPSKIPFVLAGIFVGLAFLAWKGRNLLKPLRENNGGALDERS | failed |
| MKWNLDPSHTSIDFKVRHMGIASVRGSLKVLSGSVETDEAGRPIQVEAVIDAASIATGEPQRDGHLRSADFLHAEQYPEIRFVSTQIEPLGGNRYRIQGNLTIRDITKPVTLEAEVSAPIKDPWGMQRVAASASGQINRKDWNLTWNQVLELGALLVGEEVKFNLEVEAVAPAPVAAQ | not failed |
| MKYEYPAELPVSAARDEIASAVKRSQVVIVSGQTGSGKTTQLPKILLELGRGTHGKQIVHTQPRRIAARTVAERIASEMGVKLGDEVGYQVRFTDESSPGTRLRVVTDGILLAQIQRDPKLTRYDTIIIDEAHERSLNIDFLLGYLTALLPQRRDLKLIITSATIDSVKFQEHFEHALHEKVPVIEVSGRTFPVQVVYEPLGTAPALMREVPGFAVGARPGDADYDELASAIAESDSDRPRGRSGASYADDGITDMPTAVARACAELVIHSSHERGPRDILVFASGERDIHEFEAALRHHYGPRADDMRRPDAIEIMPLFARLSAADQHKVFESHLHQRIVIATNVAETSLTVPGIRYVVDPGSARISRYSKTAKVQRLPIEPISQASADQRSGRCGRVADGIAIRLYSREDYETRPRFTEPEILRTSLGAVVLHMLSVGVARTAEDVTNFGFIDPPDMKAVSDGFNELTELKAIGRKRGEVTLTHTGRQLARIPIDVRLGRMVIEAAKTGSPNLLAQVLVVVAFLSLQDPRERPDDKREDADRIHNRYADETSDFLTALNIWDRVFQADGDPSNNALRRICKTEYFSWLRMRQWKDLVSQLRQMCKELKFKVGDPLPASRPGLEIRQLPLNQQAAHSLCCAWDADGIHKSMLAGLLSMMGMQVVREPKASDFAGLTGSARARAMKRAQKQSKNDYQGARGTRFALFPASAVAKKTPSWVMSTELVETSRLWARYSAAIDPAWAEPLAGQLTRTTYAEPHWSGSRGSAVATARVLLYGLPIVQDRAVQWGRINPLEARDFLIRQGLVEGDIQQRFSYDDFVGKNRDILEDAADDASRTRQLADTVSDEDLFDFYNAVIPNDVTSVADLAKWWKSEHDRQPNLLDFDPAKVERLASSDSVSLDDYPDHWHTTGSDGQPIDLRLSYVYDPADPADGVTVHVPLKALSRITPDQFTWNVPGLLDELILSMIKALPKQLRVQFVPAPDAARAIRDWIDEHYPDLPGSGSQQKPNLPPVDEDGTTVGWPDLAHVFTKAAIATKGAQIHPEVLGPELVERLSPYLRVTFSVEQQLPAGKHPRGRRHARGPIKVLGVSKDLKALQRKFAAQAEASARQMVKKQADQAGEQGKLVSQANLLHKAGATTESRATMLWRGALDALRLPAERISSRWLGTEALMLASAPYKSTKDLVEDLQLATVKRLMPNVDRLSDDEALANAVLDVREVYEDTVYQVAHDVIAVLKAYAEVDKATGGKADLPMLSVLQSIRDHIATLVYPGFIGRTPPDALKSLSRYLRADLSRLNKAKTDKNRDVKWAWQADEARQVVDKALARAKAEPAGPKHEALMKQAEQARWMLEEFYVSLWAQELGTKGPASLNRIKKALA | failed |
| MKYIIIGLGNYGHVLAEELSTLGHEVIGADLDEGRVDSIKDKIATAFVIDATDEQSLSVLPLNSVDMVIVAIGENFGASIRVVAMLKQKQVKHIYARAIDGVHKAVLEAFGLEKILTPEEDAARSLVQLLDFGTKMETFRVDSEYYVVKFNVPEKFVGYFVNELNLDEEFNLKLIGLKRSNTIKNCLGISLVEHKVVNELPEDAKIRPDDVLVCYGKYSDFQKLWKALLEHHHHHH | not failed |
| MKYISPGFVDAHSHIGMIPDGLEWEFQEANDFYSPIAPHLRAVDGFDPYDEAFKEAIAGGVTTVATGPGSANVMGGIGLLAKTYEEGFEKIIKPEAFIKMALGPKRPREYKSKYPYPTTRMGTVALMRTWFKRAREFMEGKIKTDNIDEEEIEMLRLLARALKREIQVKIHLSTSPDEIYAAIRIIKEFNLNATIDHAFGSQLVADMLSREGIPVIYGPPMITRIASFFRYVDDKAPVLLFKKGVNVSIMTDHPVLPEKHLRLLAAVVARNGLSLDDALKLITINPAKALGIDRFVGSLEHHHHHH | failed |
| MKYIVAVNASPRSGWNTSQLVEAAAKGAKEAGATVDIIDLYKLEPFQGCISCFGCKLPRTFGRCVSKDGLSEVLDKIRKADGLILGSPNYLGNLTAGFRALYERLIFQSLTYNKERPNCNEHMIPVLLITTSNCDESIYDKIGYTSMLEGYKQMLERFVGPLEHHHHHH | failed |
| MKYKAAIFDMDGTILDTSADLTSALNYAFEQTGHRHDFTVEDIKNFFGSGVVVAVTRALAYEAGSSRESLVAFGTKDEQIPEAVTQTEVNRVLEVFKPYYADHCQIKTGPFPGILDLMKNLRQKGVKLAVVSNKPNEAVQVLVEELFPGSFDFALGEKSGIRRKPAPDMTSECVKVLGVPRDKCVYIGDSEIDIQTARNSEMDEIAVNWGFRSVPFLQKHGATVIVDTAEKLEEAILGE | not failed |
| MKYPIVPLTKFGLFRAQTYAVLKRPYLVTALVSYFMVALLVIIYLNKAPSFTSDMEMVLPGTGSSNSVSLDNVGQVVSQTNTPFSGGGFNPRVNYKEMLSSRGVRARAAKKLHLSLEDLGEPRIKLTEQTSIISLEMSANGQELAQAKTLALYESLQDELNNLRADEVLRRDQSIEQVLDRYRERMNITRNAIVDFQQRSIVVSTDQMDQLVRTLSGVREKHLYVKAETKQLQEYIYQLSDELGVSPKLAGQAFALQSDVEFRAYITELKESITQLTEYSSRWGVNHPKVKAQQKRLNFTRISINERSSQMYGVNSNEIFNSLNLDLNPKRSELFADLIDAYAKQKGQESMLEDLGRSALHLGDQLKIYSREIVELERLQREFNMAEAIFTSAAARLEASKSDVFASYPVLQMLTTPSYPMKQSSPKNIIAFIGAITGFIFITLGLIILSQRNKLIQIILKKEETTSSNS | failed |
| MKYRFIDHTADIAFEVYGSNLRELFENAALAFYDAFVDTSGIGIEREVGVECEGEDVEITLYRWLNELLYLFDTEFFAAKDVEVEVEEGDGVKASGKLRGGRFSAEMVKVEPKAITLHKFRVEKTDKGYVAFVVVDI | failed |
